Test results taken from PMC6541287 (2019).

Target: T1, Coactosin (Entamoeba histolytica, UniProt C4M4P4)
T1 chain: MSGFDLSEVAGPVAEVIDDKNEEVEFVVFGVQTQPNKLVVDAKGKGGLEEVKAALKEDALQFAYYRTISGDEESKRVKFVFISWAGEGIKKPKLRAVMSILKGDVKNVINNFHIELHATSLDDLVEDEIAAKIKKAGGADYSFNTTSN
Assay: SPR

B1: EhP3 (protein)
chain: MAESREDCVFLSKLAEQSERYDEMVQYMKQVAALNTELSVEERNLLSVAYKNVIGSRRASWRIITSLEQKEQAKGNDKHVEIIKGYRAKIEDELAKYCDDVLKVIKENLLPNASTSESKVFYKKMEGDYYRYYAEFTVDEKRQEVADKSLAAYTEATEISNADLAPTHPIRLGLALNFSVFYYEIMNDADKACQLAKQAFDDSIAKLDEVPESSYKDSTLIMQLLRDNLTLWTSDTADEE
- Kd: 3000 nM
